The results in this text go back to patent US20250051429A1 (Hoffmann-La Roche, published 2025).

One may read the EC50 as the concentration giving half of the maximal effect. Higher therefore signals a need for much substance.

This assay has as its target T1, human A-beta protein, fibrillar A-beta(1-40) coated for the ELISA (human).
T1 construct: also called Aβ1-40 fibers; fibrillar Aβ
In words: ELISA, antibody on coated fibrillar A-beta(1-40). The method, then:
Binding of the antibodies to fibrillar Aβ is measured by an ELISA assay. Briefly, AD(1-40) is coated at 7 μg/mL in PBS onto Maxisorb plates for 3 days at 37° C. to produce fibrillar Abeta, and then dried for 3 h at RT. The plate is blocked with 1% CroteinC and 0.1% RSA in PBS (blocking buffer) for 1 h at RT, then washed once with wash buffer. Antibodies or controls are added at concentrations up to 100 nM in blocking buffer and incubated at 4° C. overnight. After 4 wash steps, constructs are detected by addition of anti-human-IgG-HRP (Jackson Immunoresearch) at 1:10,000 dilution in blocking buffer […], followed by 6 washes and incubation in TMB (Sigma). Absorbance is read out at 450 nm after stopping color development with 1 N HCl.
In general terms: An ELISA detects its analyte on a solid surface through an enzyme-linked reagent.

T1 sequence (peptide, as listed by the source): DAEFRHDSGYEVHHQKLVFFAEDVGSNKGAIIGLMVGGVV

B1: gantenerumab (antibody, human IgG1, V domains shown)
VH: QVELVESGGGLVQPGGSLRLSCAASGFTFSSYAMSWVRQAPGKGLEWVSAINASGTRTYYADSVKGRFTISRDNSKNTLYLQMNSLRAEDTAVYYCARGKGNTHKPYGYVRYFDVWGQGTLVTVSS
VL: DIVLTQSPATLSLSPGERATLSCRASQSVSSSYLAWYQQKPGQAPRLLIYGASSRATGVPARFSGSGSGTDFTLTISSLEPEDFATYYCLQIYNMPITFGQGTKVEIK
modifications: glycosylation site in heavy chain CDR2 (NAS); Fab glycosylation (CE-SDS) 30-80 %
notes: kappa light chain; also called parent antibody gantenerumab; wt: NAS
B1 yielded an EC50 of 200 pM. This lies in the sub-nanomolar range.

B2: mAb 675 (antibody, V domains shown)
VH: QVELVESGGGLVQPGGSLRLSCAASGFTFSSYAMSWVRQAPGKGLEWVSAINATGTRTYYADSVKGRFTISRDNSKNTLYLQMNSLRAEDTAVYYCARGKGSSGYVRYFDVWGQGTLVTVSS
VL: DIVLTQSPATLSLSPGERATLSCRASQSVSSSYLAWYQQKPGQAPRLLIYGASSRATGVPARFSGSGSGTDFTLTISSLEPEDFATYYCLQIYNMPITFGQGTKVEIK
modifications: glycosylation site in heavy chain CDR2 (NAT); Fab glycosylation (CE-SDS) 100 %
notes: Variant of gantenerumab: heavy chain S53T (Kabat) and shortened heavy chain CDR3, wild-type light chain; Only variable domains are tied to the name; also called 142; gantenerumab VH NAT variant with wild-type light chain
B2: it took 200 pM to reach a half-maximal effect (EC50). This counts as sub-nanomolar.

B3: mAb 663 (antibody, V domains shown)
VH: QVELVESGGGLVQPGGSLRLSCAASGFTFSSYAMSWVRQAPGKGLEWVSAIQASGTRTYYADSVKGRFTISRDNSKNTLYLQMNSLRAEDTAVYYCARGKGSSGYVRYFDVWGQGTLVTVSS
VL: DIVLTQSPATLSLSPGERATLSCRASQSVSSSYLAWYQQKPGQAPRLLIYGASSRATGVPARFSGSGSGTDFTLTISSLEPEDFATYYCLQIYNMPITFGQGTKVEIK
modifications: no Fab glycosylation (CE-SDS 0 %)
notes: Variant of gantenerumab: heavy chain N52Q (Kabat) and shortened heavy chain CDR3, wild-type light chain; also called 143; gantenerumab VH QAS variant with wild-type light chain
Take B3: a half-maximal response (EC50) required 200 pM.

B4: mAb 638 (antibody, V domains shown)
VH: QVELVESGGGLVQPGGSLRLSCAASGFTFSSYAMSWVRQAPGKGLEWVSAIQASGTRTYYADSVKGRFTISRDNSKNTLYLQMNSLRAEDTAVYYCARGKGSSGYVRYFDVWGQGTLVTVSS
VL: DIVLTQSPATLSLSPGERATLSCRASQSVSSSYLAWYQQKPGQAPRLLIYGASSRATGVPARFSGSGSGTDFTLTISSLEPEDFATYYCLQIYNHPITFGQGTKVEIK
modifications: no Fab glycosylation (CE-SDS 0 %)
notes: Variant of gantenerumab: heavy chain N52Q, shortened heavy chain CDR3, light chain M95H (Kabat)
B4 yielded an EC50 of 200 pM.

B5: mAb 651 (antibody, V domains shown)
VH: QVELVESGGGLVQPGGSLRLSCAASGFTFSSYAMSWVRQAPGKGLEWVSAINATGTRTYYADSVKGRFTISRDNSKNTLYLQMNSLRAEDTAVYYCARGKGSSGYVRYFDVWGQGTLVTVSS
VL: DIVLTQSPATLSLSPGERATLSCRASQSVSSSYLAWYQQKPGQAPRLLIYGASSRATGVPARFSGSGSGTDFTLTISSLEPEDFATYYCLQIYNHPITFGQGTKVEIK
modifications: glycosylation site in heavy chain CDR2 (NAT); Fab glycosylation (CE-SDS) 100 %
notes: Variant of gantenerumab: heavy chain S53T, shortened heavy chain CDR3, light chain M95H (Kabat); also called 144
As for B5, the EC50 is 4000 pM.
